The results in this text go back to paper PMC6312923 (Life Science Alliance, 2018).

For experiment [1], the target named is T1, recombinant PCNA (Homo sapiens, UniProt P12004).
T1 construct: made in house; host or cells: Escherichia coli BL21 (DE3)
Nature of the experiment: FP assay, direct binding of TAMRA-labelled PIP box peptides to PCNA.

The subject of experiment [2] is PCNA. As to the kind of experiment: X-ray crystal structure of PCNA/PIP peptide complexes. It is filed as binding, human. The settings on record: PCNA trimer; Cdt2 3.5 Å (6QC0), Cdt1 3.4 Å (6QCG). The procedure:
The protein solution at 17 mg·ml^−1 was pre-incubated with an equimolar amount of peptide, and 0.1 μl of this solution was mixed with 0.1 μl of reservoir solution and equilibrated against a 30 μl reservoir. Crystals for the Cdt2 complex were obtained in 10% (wt/vol) PEG 6000 and 100 mM MES/HCl, pH 6.0. Crystals for the Cdt1 complex were obtained in 15% (wt/vol) PEG 400, 100 mM calcium acetate, and 100 mM MES/HCl, pH 6.0. Crystals appeared at 4°C within 72 h. Crystals were briefly transferred to a cryo-protectant solution containing the reservoir solution and 25% (wt/vol) PEG200 and vitrified by dipping in liquid nitrogen.
X-ray data were collected on beamline ID29 at the European Synchrotron Radiation Facility. The images were integrated with XDS ([Kabsch, 2010]) and merged and scaled with AIMLESS ([Evans, 2011]). […] The models were built using COOT ([Emsley et al, 2010]) and refined with REFMAC ([Murshudov et al, 2011]) in iterative cycles. Model re-building and refinement parameter adjustment were performed in PDB-REDO ([Joosten et al, 2014]); homology-based hydrogen bond restraints ([van Beusekom et al, 2018]) were used at some stages of the procedure. The quality of the models was evaluated by MOLPROBITY ([Chen et al, 2010]). […]

In experiment [3] the target is T2, PCNA (recombinant, for the in vitro binding assays; free or loaded on DNA) (human, UniProt P12004 1-261).
T2 construct: PCNA, human, purified essentially as a trimer as described (Fukuda et al, 1995); also called free PCNA; PCNA^(on DNA); source: E. coli Rosetta(DE3) transformed with pT7-PCNA, purified (Resource Q, Superdex 200, Mono Q)
As to the kind of experiment: pull-down; PCNA loaded by RFC (2 mM ATP, 37°C, 1 h) on nicked circular DNA beads, washed; beads incubated with purified Cdt1-3FLAG or CRL4^Cdt2 alone at 4°C for 1 h in HBS buffer (10 mM Hepes pH 7.4, 10 mM MgCl2, 0.2 mM EDTA, 0.05% Tween 20, 0.15 M NaCl); bound proteins by Western blot. As to conditions: both partners purified. (In general: A western blot detects proteins with antibodies after separation by electrophoresis.)

Experiment [4] has as its system free PCNA. As to the kind of experiment: Binding of free PCNA to Cdt1 or CRL4^Cdt2 on anti-FLAG beads. Also on record: species or system human. The settings on record: 2 h at 4°C, Western blotting, three independent experiments. From the text:
FLAG-tagged Cdt1 (Cdt1-3FLAG) and CRL4^Cdt2 (Cdt2-3FLAG) were expressed in insect cells and purified on anti-FLAG resin (Fig 5A).

Experiment [5] deals with PCNA loaded on nicked circular DNA (PCNA^on DNA). As to the kind of experiment: Binding of purified Cdt1 and CRL4^Cdt2 to PCNA loaded on ncDNA beads. On the set-up: species or system human. The settings on record: RFC +, 4°C 1 h, n = 3 or n > 3. As to the method:
In our in vitro conditions, three molecules of PCNA trimer were loaded on one plasmid DNA. […] The interaction was not mediated by RFC proteins bound on ncDNA (Fig 5D, lane 6).
Figure S5. […] The beads were then incubated with Cdt1 or CRL4^Cdt2 (Step 2; binding). (B) RFC-dependent loading of PCNA.
Closed circular (cc) DNA beads were prepared as described ([Higashi et al, 2012]). Briefly, single-stranded DNA templates prepared using pBluescript II KS(−) were annealed with a biotinated oligonucleotide primer (5′-[…] [biotin-dT][…]-3′). After second-strand synthesis and ligation, covalently cc double-stranded DNA was purified by CsCl/EtBr density gradient centrifugation, incubated with streptavidin, and bound to biotin-sepharose beads to produce the cc DNA beads (around 100 ng per 1 μl bed volume of beads). A single nick was introduced by Nb.BbvCI (New England Biolabs) treatment to produce the ncDNA beads. As control beads, biotin-sepharose beads were incubated with streptavidin alone (sa-beads).
The sa-beads were treated in the same way and used as control beads. The beads were incubated with Cdt1 or CRL4^Cdt2 alone at 4°C for 1 h and washed with HBS buffer. The bound proteins were analysed on Western blotting. […] The purified nc DNA was run on 0.8% agarose gel in 1× TBE (Tris-borate-EDTA) buffer and detected with ethidium bromide.

Experiment [6] deals with UV-C–damaged sites in MCF7 cells. As to the kind of experiment: FRAP of GFP-tagged proteins at sites of local UV-C damage in MCF7 cells. Format: cell-based, human. As to conditions: GFP-tagged, UV-C 50 J/m^2.

T2 sequence (P12004 whole entry): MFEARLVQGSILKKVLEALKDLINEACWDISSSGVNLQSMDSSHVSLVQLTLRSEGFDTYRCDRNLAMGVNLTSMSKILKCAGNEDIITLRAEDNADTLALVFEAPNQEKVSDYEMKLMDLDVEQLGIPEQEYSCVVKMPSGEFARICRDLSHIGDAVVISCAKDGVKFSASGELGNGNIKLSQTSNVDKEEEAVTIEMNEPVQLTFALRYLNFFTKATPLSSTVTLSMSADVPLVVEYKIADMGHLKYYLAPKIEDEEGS
T1 sequence (P12004 whole entry): as above

As to “MEQRRVTDFFARRR [Cdt1^PIP, Cdt1 PIP box peptide (1–14)]”, in experiment [1], the “relative affinity for PCNA, Cdt2^PIP versus Cdt1^PIP” value was “two orders of magnitude weaker”. Also, in experiment [2], the “binding stoichiometry in crystal” value is given as “one peptide bound per monomer”.

B1: Cdt1-3FLAG (natural protein, human, UniProt Q9H211 1-546, looked up)
chain: MEQRRVTDFFARRRPGPPRIAPPKLACRTPSPARPALRAPASATSGSRKRARPPAAPGRDQARPPARRRLRLSVDEVSSPSTPEAPDIPACPSPGQKIKKSTPAAGQPPHLTSAQDQDTISELASCLQRARELGARVRALKASAQDAGESCTPEAEGRPEEPCGEKAPAYQRFHALAQPGLPGLVLPYKYQVLAEMFRSMDTIVGMLHNRSETPTFAKVQRGVQDMMRRRFEECNVGQIKTVYPASYRFRQERSVPTFKDGTRRSDYQLTIEPLLEQEADGAAPQLTASRLLQRRQIFSQKLVEHVKEHHKAFLASLSPAMVVPEDQLTRWHPRFNVDEVPDIEPAALPQPPATEKLTTAQEVLARARNLISPRMEKALSQLALRSAAPSSPGSPRPALPATPPATPPAASPSALKGVSQDLLERIRAKEAQKQLAQMTRCPEQEQRLQRLERLPELARVLRSVFVSERKPALSMEVACARMVGSCCTIMSPGEMEKHLLLLSELLPDWLSLHRIRTDTYVKLDKAADLAHITARLAHQTRAEEGL
notes: Cdt1, human; also called FLAG-tagged Cdt1; Cdt1-3FLAG (WT); source: Sf21 insect cells (baculovirus), purified (DEAE flowthrough, anti-FLAG resin, 3× FLAG peptide elution); not shown: 3FLAG, C-terminal, kept
As for B1, in experiment [3], the “stoichiometry N” value is 2.04 Cdt1 molecules on one PCNA trimer.

B2: Cdt1: DNA replication licensing factor, FLAG-tagged, purified from insect cells; GFP-tagged in FRAP (protein, UniProt Q9H211 1-546, looked up)
DNA replication factor Cdt1: B1 chain
modifications: FLAG or eGFP tag
notes: DNA replication licensing factor, FLAG-tagged, purified from insect cells; GFP-tagged in FRAP
B2: the “binding of free PCNA to protein beads” value in experiment [4] is given as “PCNA was detected”. Moreover, the bound protein in experiment [5] turned out to be 301 fmol. The “FRAP behaviour at UV-C–damaged sites” value in experiment [6] is recorded as “dynamic interactions”.
